“And” between values parts separate entries of the source, which are not always exact repeats. Equal entries are not always repeated.
T1: hFGFR3-Fc (human, UniProt P22607 23-375)
T1 construct: extracellular domain; Bought from R&D Systems; not shown: Fc domain of human IgG1
T1 sequence (looked up): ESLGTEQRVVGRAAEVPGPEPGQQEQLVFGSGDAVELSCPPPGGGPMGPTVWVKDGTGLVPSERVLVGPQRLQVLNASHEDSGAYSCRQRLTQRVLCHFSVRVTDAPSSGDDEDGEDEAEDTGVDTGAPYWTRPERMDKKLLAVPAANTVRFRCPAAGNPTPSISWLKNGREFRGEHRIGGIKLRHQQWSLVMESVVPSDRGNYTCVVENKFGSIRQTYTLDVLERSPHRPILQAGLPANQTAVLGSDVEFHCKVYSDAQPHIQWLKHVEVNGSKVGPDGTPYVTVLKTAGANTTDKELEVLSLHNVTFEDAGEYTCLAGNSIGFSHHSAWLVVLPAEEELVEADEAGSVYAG

B1: anti-FGFR4 antibody clone 33 (human IgG1 format) (antibody, V domains shown)
VH: EVQLLESGGGLVQPGGSLRLSCAASGFTFSTYWMAWVRQAPGKGLEWVSVIGPSGGMTVYADSVKGRFTISRDNSKNTLYLQMNSLRAEDTAVYYCARINSGSSHFDYWGQGTLVTVSS
VL: QSVLTQPPSASGTPGQGVTISCSGSSSNIGSNSVNWYQQLPGAAPKLLIYSNNLRPSGVPARFSGSKSGTSASLAISGLRSEDEADYYCAAWDDGLDAYVVFGGGTKLTVLG
notes: As for clone 8: human IgG1 format from HEK293; also called antibody 33
B2: clone 33 in the Fab format displayed on phage (Fab, V domains shown)
VH: B1 VH
VL: B1 VL
B3: anti-FGFR4 antibody 64-12 (antibody, mouse IgG1, V domains shown)
VH: DVQLVESGGGLVQPGGSRKLSCAASGFTFSNFGMHWVRQAPEKGLEWVAYISSGSSTIYYADTVKGRFTISRDNPKNTLFLQMTSLRSEDTAMYYCARYDYDDDYYAMEYWGQGTSVTVSS
VL: QAVVTQESALTTSPGETVTLTCRSSTGAVTTSNYANWVQEKPDHLFTGLIGGTNNRAPGVPARFSGSLIGDKAALTITGAQTEDEAIYFCALWYSNHWVFGGGTKLTVLG
notes: also called clone 64-12; control antibody 64-12
B4: anti-FGFR4 antibody clone 31 (human IgG1 format) (antibody, V domains shown)
VH: EVQLLESGGGLVQPGGSLRLSCAASGFTFSRYFMKWVRQAPGKGLEWVSWISPSGGLTEYADSVKGRFTISRDNSKNTLYLQMNSLRAEDTAVYYCARASYGAWLDYWGQGTLVTVSS
VL: DIQMTQSPSSLSLSPGERATLSCRASQSINRNLGWYQQKPGQAPRLLIYGASTRATGIPARFTGSGSGTEFSLTISSLQSEDYAIYYCQQYDNWPIIFGQGTRLEIKG
notes: As for clone 8: human IgG1 format from HEK293; also called antibody 31
B5: clone 31 in the Fab format displayed on phage (Fab, V domains shown)
VH: B4 VH
VL: B4 VL
B6: anti-FGFR4 antibody clone 36 (human IgG1 format) (antibody, V domains shown)
VH: EVQLLESGGGLVQPGGSLRLSCAASGFTFSHYWMGWVRQAPGKGLEWVSVISPSGGLTIYADSVKGRFTISRDNSKNTLYLQMNSLRAEDTAVYYCARSSGWALDAFDIWGQGTMVTVSS
VL: QYELTQPPSASGTPGQRVTISCSGSSSNIGSNIVHWYQQLPGTAPKLLIYGNNQRPSGVPDRFSVSKSGSSASLAISGLQSEDEADYYCASWDDSLKAFYVFGTGTKVTVLG
notes: As for clone 8: human IgG1 format from HEK293; also called antibody 36
B7: clone 36 in the Fab format displayed on phage (Fab, V domains shown)
VH: B6 VH
VL: B6 VL
B8: anti-FGFR4 antagonist monoclonal antibody 40-12 (antibody, mouse IgG1, kappa, V domains shown)
VH: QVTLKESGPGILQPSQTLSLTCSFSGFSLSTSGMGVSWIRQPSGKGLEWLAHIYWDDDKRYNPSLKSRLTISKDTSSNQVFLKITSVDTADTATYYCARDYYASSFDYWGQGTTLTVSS
VL: DIVLTQSPATLSVTPGDRVSLSCRASQSISNYLHWYQQKSHESPRLLIKYASQSISGIPSRFSGSGSGTDFILSFNSVETEDFGMYFCQQSNSWPFTFGSGTKLEIKR
notes: Purified on protein G; also called clone 40-12; anti-FGFR4 40-12
B9: anti-FGFR4 antibody clone 8 (human IgG1 format) (antibody, V domains shown)
VH: EVQLLESGGGLVQPGGSLRLSCAASGFTFSPYWMGWVRQAPGKGLEWVSVIWPSGGTTDYADSVKGRFTISRDNSKNTLYLQMNSLRAEDTAVYYCARVHPAGHNDHWGQGTLVTVSS
VL: QSELTQPPSASGTPGQRVTISCSGGYSNMGSNYAHWYQQLPGTAPKLLIYNNNQRPSGVPDRFSGSKSGTSASLAISGLRSEDEADYYCAAWDDSLSGPVFGGGTKLTVLG
notes: also called antibody 8
B10: clone 8 in the Fab format displayed on phage (Fab, V domains shown)
VH: B9 VH
VL: B9 VL

Tests used:
mFGFR4-Histag [1] = molecular target: T2, mFGFR4-Histag (murine, UniProt Q03142 19-362); experiment: SPR (BIAcore 3000)
T2 construct: also called murine protein mFGFR4; murine FGF-R4

hFGFR4-Histag [2] = molecular target: T3, hFGFR4-Histag (human, UniProt P22455 22-365); experiment: SPR (BIAcore 3000)
T3 construct: also called SABVA4614

hFGFR4(D2,D3)-Histag [3] = molecular target: T4, hFGFR4(D2,D3)-Histag (human, UniProt P22455 22-365); experiment: ELISA, HEK293 supernatant IgG on coated antigen
T4 construct: also called extracellular domain of FGF-R4 deleted of its D1 domain
Source text: (§1) The capture antigen was bound to Immulon-4 enzyme-linked plates (VWR Scientific Inc. Swedesboro, N.J.).

hFGFR4-Histag [4] = molecular target: T3, hFGFR4-Histag; experiment: ELISA, HEK293 supernatant IgG on coated antigen
Source text: as §1

hFGFR3-Fc [5] = molecular target: T1, hFGFR3-Fc; experiment: phage Fab ELISA on coated antigen, anti-M13 detection
Source text: (§2) The specificity of each antibody is established by ELISA according to the following protocol: suspensions of phages displaying, at their surface, the antibodies in the Fab format are generated by infection of E. coli bacteria. The capture antigens were bound to Immulon-2 enzyme-linked dishes (VWR Scientific Inc. Swedesboro, N.J.).

hFGFR2-Fc [6] = molecular target: T5, hFGFR2-Fc (human); experiment: as above
T5 construct: Extracellular domain of human FGF-R2 IIIc fused C-terminally to the Fc domain of human IgG1
Source text: as §2

hFGFR4(D2,D3)-Histag [7] = molecular target: T4, hFGFR4(D2,D3)-Histag; experiment: as above
Source text: as §2

hFGFR1-Fc [8] = molecular target: T6, hFGFR1-Fc (human); experiment: as above
T6 construct: Extracellular domain of human FGF-R1 IIIc fused C-terminally to the Fc domain of human IgG1
Source text: as §2

[9] = molecular target: T7, human FGF-R4 recombinant extracellular domain protein, construct not named (human, UniProt P22455 22-369); experiment: SPR (BIAcore), antibody captured by anti-Fc antibody on the chip
T7 construct: extracellular domain; also called the FGF-R4 protein; complete extracellular domain of human FGF-R4

mFGFR4-Histag [10] = molecular target: T2, mFGFR4-Histag; experiment: ELISA on coated FGF-R4 constructs, single condition, antibody concentration not given
hFGFR3-Fc [11] = molecular target: T1, hFGFR3-Fc; experiment: ELISA on plates coated with the 4 human FGF receptors, single condition, antibody concentration not given
[12] = molecular target: T8, rat FGF-R4 expressed on transfected 300-19 cells (rat, UniProt Q498D6 17-800); experiment: displacement of labelled rat FGF2 from rat FGF-R4 on 300-19 cells; rat FGF-R4, rat FGF2; in ng/ml
T8 construct: also called rFGFR4
Procedure: (§3) Firstly, competition binding experiments were carried out.
(§4) The dissociation experiments were carried out using the 300-19 lines transfected with mouse or rat FGF-R4 receptors.

hFGFR3-Fc [13] = molecular target: T1, hFGFR3-Fc; experiment: ELISA on plates coated with the 4 human FGF receptors, antibody concentration not given
hFGFR2-Fc [14] = molecular target: T5, hFGFR2-Fc; experiment: as above
hFGFR1-Fc [15] = molecular target: T6, hFGFR1-Fc; experiment: as above
[16] = molecular target: T9, mouse FGF-R4 expressed on transfected 300-19 cells (mouse, UniProt Q03142 17-799); experiment: displacement of labelled murine FGF2 from mouse FGF-R4 on 300-19 cells; mouse FGF-R4, murine FGF2; in ng/ml
T9 construct: whole, on cells; also called murine FGF-R4
Procedure: as §3, §4

[17] = molecular target: T10, human FGF-R4 expressed on cells (human, UniProt P22455 22-802); experiment: displacement of FGF2-AF488 (10 ng/ml) from human FGF-R4 on 300-19 cells
T10 construct: whole, on cells; Functional assays: endogenous receptor of human Hep3b and HUVEC cells; also called human FGF-R4s expressed at the surface of transfected 300-19 cells; FGF-R4 of Hep3b and HUVEC cells

hFGFR4_D2:Fc (SABVA4796) = molecular target: T11, hFGFR4_D2:Fc (SABVA4796) (human); experiment: ELISA on coated subdomain-Fc construct
T11 construct: FGF-R4_HUMAN positions 1 to 32 plus 145 to 242 fused to the Fc domain of human IgG1; also called fGFGR4_D2::Fc
Source text: as §1

hFGFR4_D1:Fc (SABVA4794) = molecular target: T12, hFGFR4_D1:Fc (SABVA4794) (human); experiment: ELISA on coated subdomain-Fc construct
T12 construct: FGF-R4_HUMAN positions 1 to 179 fused to the Fc domain of human IgG1; also called fGFGR4_D1::Fc
Source text: as §1

hFGFR4_D3:Fc (SABVA4799) = molecular target: T13, hFGFR4_D3:Fc (SABVA4799) (human); experiment: ELISA on coated subdomain-Fc construct
T13 construct: also called fGFGR4_D3::Fc
Source text: as §1

Binder | Kd (mFGFR4-Histag [1]) [nM] | koff (mFGFR4-Histag [1]) [s⁻¹] | kon (mFGFR4-Histag [1]) [M⁻¹ s⁻¹] | Kd (hFGFR4-Histag [2]) [nM] | koff (hFGFR4-Histag [2]) [s⁻¹] | kon (hFGFR4-Histag [2]) [M⁻¹ s⁻¹] | OD signal at 450 nm (hFGFR4(D2,D3)-Histag [3]) [OD 450 nm] | OD signal at 450 nm (hFGFR4-Histag [4]) [OD 450 nm] | ELISA signal (OD, 450 nm) (hFGFR3-Fc [5]) [OD 450 nm] | ELISA signal (OD, 450 nm) (hFGFR2-Fc [6]) [OD 450 nm] | ELISA signal (OD, 450 nm) (hFGFR4(D2,D3)-Histag [7]) [OD 450 nm] | ELISA signal (OD, 450 nm) (hFGFR1-Fc [8]) [OD 450 nm] | also measured
B1 | 0.692 | 0.000704 | 1.01e+06 | 0.771 | 0.000617 | 805000 | 3.62 | 3.75 |  |  |  |  | 
B2 |  |  |  |  |  |  |  |  | -0.01 | 0 | 2.73 | 0 | 
B3 |  |  |  |  |  |  |  |  |  |  |  |  | Kd [9]: 57.5 nM; koff [9]: 0.000602 s⁻¹; kon [9]: 10500 M⁻¹ s⁻¹; binding result (mFGFR4-Histag [10]): binds; binding result (hFGFR3-Fc [11]): binds
B4 | 1.97 | 0.0018 | 914000 | 1.52 | 0.00098 | 648000 | 3.74 | 3.86 |  |  |  |  | 
B5 |  |  |  |  |  |  |  |  | 0.01 | 0 | 2.52 | 0 | 
B6 | 2.28 | 0.000752 | 330000 | 2.62 | 0.000631 | 244000 | 3.62 | 3.75 |  |  |  |  | 
B7 |  |  |  |  |  |  |  |  | -0.02 | -0.01 | 1.87 | -0.01 | 
B8 |  |  |  |  |  |  |  |  |  |  |  |  | IC50 [12]: 3.94 µg/mL; binding result (hFGFR3-Fc [13]): no binding; binding result (hFGFR2-Fc [14]): no binding; binding result (hFGFR1-Fc [15]): no binding; IC50 [16]: 4.11 µg/mL; IC50 [17]: 3.5 µg/mL and 23 nM; Signal (O.D., 450 nm) (hFGFR4_D2:Fc (SABVA4796)): 3 O.D. 450 nm; Signal (O.D., 450 nm) (hFGFR4_D1:Fc (SABVA4794)): 0.185 O.D. 450 nm; Signal (O.D., 450 nm) (hFGFR4_D3:Fc (SABVA4799)): 0.105 O.D. 450 nm; Kd [9]: 6.5 nM; koff [9]: 0.00126 s⁻¹; kon [9]: 194000 M⁻¹ s⁻¹
B9 | 0.115 | 0.000136 | 1.2e+06 | 0.327 | 0.000292 | 893000 | 3.86 | 3.9 |  |  |  |  | 
B10 |  |  |  |  |  |  |  |  | 0 | 0 | 2.55 | 0.05 | 

Source: patent US20110150903A1 (Sanofi, published 2011)
